Where two headings read alike, the source gives them in different places.
T1: human ICOS (human, UniProt Q9Y6W8 21-199)
T1 construct: The cell that carries it is named under assay; also called huICOS; CD278
T1 sequence: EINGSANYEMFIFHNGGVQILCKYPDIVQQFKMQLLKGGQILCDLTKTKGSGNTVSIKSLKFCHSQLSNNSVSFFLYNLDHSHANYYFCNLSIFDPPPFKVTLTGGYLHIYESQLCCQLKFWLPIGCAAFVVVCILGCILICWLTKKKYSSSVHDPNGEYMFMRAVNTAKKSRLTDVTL

T2: cynomolgus ICOS (cynomolgus, UniProt Q9Y6W8 21-195 (human entry))
T2 chain: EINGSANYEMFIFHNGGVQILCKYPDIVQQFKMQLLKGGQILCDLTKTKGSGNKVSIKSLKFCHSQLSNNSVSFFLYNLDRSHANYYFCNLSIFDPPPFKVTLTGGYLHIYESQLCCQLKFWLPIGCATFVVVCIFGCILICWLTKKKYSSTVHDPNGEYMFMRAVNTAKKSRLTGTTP


Assays:
[1] = target: T1, human ICOS; test: flow cytometry on SR cells expressing human ICOS, PE-labelled secondary antibody, MFI
Description: (§1) Briefly, suspension cells were harvested, counted, checked for viability and re-suspended at 1 million cells per ml in FACS buffer (PBS with 0.1% BSA). […] The staining was fixed for 20 min at 4° C. in the dark, using 75 μl of 1% PFA in FACS buffer per well.
(§2) In addition, binding of the above molecules to human SR cells (ATCC® CRL-2262) was performed as described above apart from the following modifications: SR cells were re-suspended at 2 million cells per ml in FACS buffer (BD).
(§3) Fluorescence was analyzed by FACS using a FACS Fortessa (Software FACS Diva). Binding curves and EC50 values were obtained using GraphPadPrism 7.

[2] = target: T1, human ICOS; test: flow cytometry, MFI(ICOSL+anti-ICOS)/MFI(anti-ICOS only)*100 at 120 nM; competitor ICOSL
Description: (§4) Briefly, cells were harvested, counted, checked for viability and re-suspended at 1 million cells per ml in FACS buffer (PBS with 0.1% BSA). […] Cells were washed again twice with cold PBS 0.1% BSA and then re-incubated and fixed for 20 min at 4° C. in the dark, using 75 μl of 1% PFA in FACS buffer per well. Fluorescence was analyzed by FACS using a FACS Fortessa (Software FACS Diva. Data was analyzed using GraphPadPrism 7.

[3] = target: T1, human ICOS; test: flow cytometry, SR cells
Description: as §1, §2, §3

[4] = target: T3, recombinant monomeric human ICOS Fc(kih) Avi tag (human, UniProt P0DOX5 223-449 = IgG part, biotin on the Avi tag in the ligand-blocking and the SPR competition assays); test: SPR competition on human ICOS Fc(kih); second injection 100 nM; competitor (row): Molecule 8
T3 construct: also called recombinant human ICOS; biotinylated human ICOS Fc(kih)
Description: (§5) Immobilization levels up to 600 resonance units (RU) were used. […] Bulk refractive index differences were corrected for by subtracting the response obtained on reference flow cell.
(§6) The SPR experiments were performed on a Biacore T200 at 25° C. with HBS-EP as running buffer (0.01 M HEPES pH 7.4, 0.15 M NaCl, 3 mM EDTA, 0.005% Surfactant P20, Biacore, Freiburg/Germany).

[5] = target: T1, human ICOS; test: flow cytometry, CHO cells expressing human ICOS
Description: as §1, §3

[6] = target: T3, recombinant monomeric human ICOS …; test: SPR competition on human ICOS Fc(kih); second injection 100 nM; competitor (row): Molecule 18
Description: as §5, §6

[7] = target: T3, recombinant monomeric human ICOS …; test: SPR competition on human ICOS Fc(kih); second injection 100 nM; competitor (row): Molecule 14
Description: as §5, §6

[8] = target: T1, human ICOS; test: flow cytometry, ICOS+ CHO cells, 120 nM anti-ICOS IgG pre-bound, then ICOSL (competitor) 120 nM
Description: as §4

[9] = target: T1, human ICOS; test: flow cytometry, ICOS+ CHO cells, 120 nM anti-ICOS IgG, no ICOSL
Description: as §4

[10] = target: T3, recombinant monomeric human ICOS …; test: SPR (Biacore T200, 25 C), antibody captured on anti-rabbit Fc, ICOS Fc(kih) 7.5-600 nM as analyte, 1:1 Langmuir fit
Description: All SPR experiments were performed on a Biacore T200 at 25° C. with HBS-EP as running buffer (0.01 M HEPES pH 7.4, 0.15 M NaCl, 3 mM EDTA, 0.005% Surfactant P20, Biacore, Freiburg/Germany).
Setup 1: Anti-rabbit Fc antibody (Jackson ImmunoResearch, Cambridgeshire/UK) was directly coupled on a CM5 chip at pH 4.5 using the standard amine coupling kit (Biacore, Freiburg/Germany). The immobilization level was approximately 9000 RU. […] The dissociation was monitored for 720 seconds. Bulk refractive index differences were corrected for by subtracting the response obtained on reference flow cell.

[11] = target: T1, human ICOS; test: flow cytometry on CHO cells stably expressing human ICOS, PE-labelled secondary antibody, median fluorescence intensity (MFI)
Description: as §1, §3

[12] = target: T1, human ICOS; test: cell-based or functional assay
[13] = target: T3, recombinant monomeric human ICOS …; test: SPR competition on human ICOS Fc(kih); second injection 100 nM; competitor (row): Molecule 20
Description: as §5, §6

[14] = target: T2, cynomolgus ICOS; test: flow cytometry, activated cynomolgus PBMCs, CD8+ subset
Description: as §1
(§7) Briefly, cynomolgus PBMCs were activated for 48 hours using Dynabeads™ Human T-Activator CD3/CD28 (Thermo Fischer #11131D) according to manufacturer instruction and stored in RPMI1640 medium containing 10% FCS and 1% Glutamax (Gibco 35050061) at 37° C., in a humidified incubator until subsequent binding experiment was performed, as described above.

[15] = target: T2, cynomolgus ICOS; test: flow cytometry, activated cynomolgus PBMCs, CD4+ subset
Description: as §1, §7

[16] = target: T4, human FAP (human, UniProt Q12884 1-760); test: flow cytometry, NIH/3T3-huFAP clone 19 cells
T4 construct: also called hu FAP
Description: as §1
(§8) Fluorescence was analyzed by FACS using a FACS Fortessa (Software FACS Diva). Binding curves and EC₅₀ values were obtained using GraphPadPrism 7.

[17] = target: T4, human FAP; test: flow cytometry, NIH/3T3-huFAP clone 19 cells; remark: listed apart in the source
[18] = target: T1, human ICOS; test: flow cytometry, CHO cells expressing human ICOS; remark: listed apart in the source
Description: as §1, §8

[19] = target: T1, human ICOS; test: flow cytometry, SR cells; remark: listed apart in the source
[20] = target: T1, human ICOS; test: flow cytometry on SR cells expressing human ICOS, geometric MFI

Row | Binder | EC50 (read off the curve) [1] | Relative Binding (%) [2] | EC50 [3] | EC50 [5] | binding of the second injection (0 = no binding; 1 = binding) [6] | binding of the second injection (0 = no binding; 1 = binding) [7] | MFI (A488), IgG + ICOSL [8] | MFI (A488), IgG only [9] | Kd [10] | koff [10] | kon [10] | t1/2 [10] | EC50 (read off the curve) [11] | EC50 of activation of Jurkat-NFAT reporter cell line (luminescence) [12] | EC50 [14] | EC50 [15] | EC50 [16] | EC50 [18] | further results
1 | Molecule 20 (rbIgG of 1143) (antibody, V domains shown, Rabbit IgG format; also called ICOS (1143); clone 1143) VH: QSLEESGGDLVKPGASLTLTCKASGFDFSSAYDMCWVRQAPGKGLEWIGCVYYGDGITYYATWAKGRFTISKTSSTTVPLQMTSLTAADTATYFCARGAFLGSSYYLSLWGQGTLVTVSS VL: AIDMTQTPASVEAAVGGTVTINCQASENIYNWLAWYQQKPGQPPKLLIYDASKLASGVPSRFSASGSGTQFTLTISAVECADAATYYCQQAYTYGNIDNAFGGGTEVVVSG | ~0.4 nM | 100% | 0.0004 nM | 0.0003 nM | 1 | 0 | 6340 MFI | 6320 MFI | 0.1 nM | 2.3e-05 s⁻¹ | 170000 M⁻¹ s⁻¹ | 8.3 h | ~0.3 nM | 0.02 nM | – | – | – | – | binding of the second injection (0 = no binding; 1 = binding) [4]: 0
2 | Molecule 8 (rbIgG of 1167) (antibody, V domains shown, Rabbit IgG format, from transgenic rabbit; also called ICOS (1167); clone 1167) VH: EVRLLESGGGLVQPGGSLRLSCAASGFTFNTYAVHWVRQAPGKGLEWVSGIGGSGVRTYYADSVKGRLTISRDNSKNTLYLQMNSLRAEDTAIYFCAKDIYVADFTGYAFDIWGQGTMVTVSS VL: DIQMTQSPSSVSASVGDRVTITCRASQGINNFLAWYQQKPGKAPKLLIYDASSLQSGVPSRFAGSGSGTDFTLTISSLQPEDFATYYCQQYNFYPLTFGGGTMVEIKR | ~1 nM | 98.2% | 0.00113 nM | 0.00069 nM | 1 | 0 | 7660 MFI | 7800 MFI | 76 nM | 0.0061 s⁻¹ | 81000 M⁻¹ s⁻¹ | 0.0317 h | ~0.7 nM | 0.13 nM | – | – | – | – | binding of the second injection (0 = no binding; 1 = binding) [13]: 0

Now from value to binder, other results behind:

Row | EC50 (read off the curve) [1] | Relative Binding (%) [2] | EC50 [3] | EC50 [5] | binding of the second injection (0 = no binding; 1 = binding) [6] | binding of the second injection (0 = no binding; 1 = binding) [7] | MFI (A488), IgG + ICOSL [8] | MFI (A488), IgG only [9] | Kd [10] | koff [10] | kon [10] | t1/2 [10] | EC50 (read off the curve) [11] | EC50 of activation of Jurkat-NFAT reporter cell line (luminescence) [12] | EC50 [14] | EC50 [15] | EC50 [16] | EC50 [18] | Binder | further results
3 | – | – | – | – | – | – | – | – | – | – | – | – | – | – | 8.34 nM | 6.53 nM | 4.68 nM | 2.19 nM | Molecule 22, bispecific 2+1 anti-ICOS (1143v2)/anti-FAP (4B9) huIgG1 P329GLALA kih (bispecific antibody) heavy 1: QSLEESGGDLVKPGASLTLTCKASGFDFSSAYDMSWVRQAPGKGLEWIGVIYYGDGITYYATSVKGRFTISKTSSTTVPLQMTSLTAADTATYFCARGAFLGSSYYLSLWGQGTLVTVSSASTKGPSVFPLAPSSKSTSGGTAALGCLVKDYFPEPVTVSWNSGALTSGVHTFPAVLQSSGLYSLSSVVTVPSSSLGTQTYICNVNHKPSNTKVDKKVEPKSCDKTHTCPPCPAPEAAGGPSVFLFPPKPKDTLMISRTPEVTCVVVDVSHEDPEVKFNWYVDGVEVHNAKTKPREEQYNSTYRVVSVLTVLHQDWLNGKEYKCKVSNKALGAPIEKTISKAKGQPREPQVCTLPPSRDELTKNQVSLSCAVKGFYPSDIAVEWESNGQPENNYKTTPPVLDSDGSFFLVSKLTVDKSRWQQGNVFSCSVMHEALHNHYTQKSLSLSPGGGGGSGGGGSGGGGSGGGGSEIVLTQSPGTLSLSPGERATLSCRASQSVTSSYLAWYQQKPGQAPRLLINVGSRRATGIPDRFSGSGSGTDFTLTISRLEPEDFAVYYCQQGIMLPPTFGQGTKVEIK heavy 2: not shown light: AIDMTQTPASVEAAVGGTVTINCQASENIYNWLAWYQQKPGQPPKLLIYDASKLASGVPSRFSASGSGTQFTLTISAVESADAATYYCQQAYTYGNIDNAFGGGTEVVVSRTVAAPSVFIFPPSDEQLKSGTASVVCLLNNFYPREAKVQWKVDNALQSGNSQESVTEQDSKDSTYSLSSTLTLSKADYEKHKVYACEVTHQGLSSPVTKSFNRGEC | EC50 [17]: 0.00324 nM; EC50 [19]: 0.00117 nM; EC50 (read off the curve) [20]: ~1 nM
4 | – | – | – | – | – | – | – | – | – | – | – | – | – | – | 14 nM | 13.5 nM | 6.16 nM | 5.44 nM | Molecule 19, bispecific 2+1 anti-ICOS (1138)/anti-FAP (4B9) huIgG1 P329GLALA kih (bispecific antibody) heavy 1: QSLEESGGDLVKPGASLTLTCTASGFDLSSYYYMSWVRQAPGKGLEWIASIYADIYGGTTHYASWAKGRFTISKTSSTTVTLQMTSLTAADTATYFCAREDGSRYGGSGYYNLWGPGTLVTVSSASTKGPSVFPLAPSSKSTSGGTAALGCLVKDYFPEPVTVSWNSGALTSGVHTFPAVLQSSGLYSLSSVVTVPSSSLGTQTYICNVNHKPSNTKVDKKVEPKSCDKTHTCPPCPAPEAAGGPSVFLFPPKPKDTLMISRTPEVTCVVVDVSHEDPEVKFNWYVDGVEVHNAKTKPREEQYNSTYRVVSVLTVLHQDWLNGKEYKCKVSNKALGAPIEKTISKAKGQPREPQVCTLPPSRDELTKNQVSLSCAVKGFYPSDIAVEWESNGQPENNYKTTPPVLDSDGSFFLVSKLTVDKSRWQQGNVFSCSVMHEALHNHYTQKSLSLSPGGGGGSGGGGSGGGGSGGGGSEIVLTQSPGTLSLSPGERATLSCRASQSVTSSYLAWYQQKPGQAPRLLINVGSRRATGIPDRFSGSGSGTDFTLTISRLEPEDFAVYYCQQGIMLPPTFGQGTKVEIK heavy 2: not shown light: ALVMTQTPSSVSAAVGGTVTINCQASQNIYSNLAWYQQKPGQPPKLLIYAASYLTSGVSSRFKGSGAGTQFTLTISGVESADAATYYCQQGHTTDNIDNAFGGGTEVVVKRTVAAPSVFIFPPSDEQLKSGTASVVCLLNNFYPREAKVQWKVDNALQSGNSQESVTEQDSKDSTYSLSSTLTLSKADYEKHKVYACEVTHQGLSSPVTKSFNRGEC | –

Source: patent US20220098305A1 (Hoffmann-La Roche, published 2022)
